Assay results published in publication PMC3938669, “Inhibition of Hepatitis C Virus Infection by DNA Aptamer against NS2 Protein”.

Target: NS2 (recombinant) (Hepatitis C virus JFH1 (genotype 2a), UniProt Q99IB8 814-1030)
Experiment: ELONA; binding retained with excess yeast tRNA; ELONA: biotin-aptamer on streptavidin plates, protein 30 min at 37 C; washes PBS, 1 mM MgCl2, 0.1% BSA, 0.05% Tween-20; pH not stated
Conditions: tags: N-terminal His (pET-28b), label: biotin

NS2 (recombinant), sequence (Q99IB8 814-1030): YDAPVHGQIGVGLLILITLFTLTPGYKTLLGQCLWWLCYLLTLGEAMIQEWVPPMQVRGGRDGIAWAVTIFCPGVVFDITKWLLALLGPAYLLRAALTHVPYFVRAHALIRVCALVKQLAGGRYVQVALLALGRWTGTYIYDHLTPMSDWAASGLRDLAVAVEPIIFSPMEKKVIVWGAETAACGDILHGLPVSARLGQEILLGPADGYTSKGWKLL

Binder	binding result
ACGGGGCAGGATTGTCCCCGCGCCTGGTTGAAGGTAGTCGC (ssDNA) [aptamer NS2-3]	binds
CTGGATCGAAAAGTATCCACGTTTGTCTGAAAATAGTGGCC (ssDNA) [aptamer NS2-1]	binds
CAGGTACCACCTTCATGGGCGCGGAAGACGATGGTGTACTA (ssDNA) [aptamer NS2-2]	binds
